# Assay results: article doi:10.1101/235556
# Biological target: Polyhydroxyalkanoate synthase PhaC from Aquitalea sp. USM4 (JCM 19919) (Aquitalea sp. USM4 (JCM 19919))
# Assay: SEC
substance,measurement,value
Polyhydroxyalkanoate synthase PhaC from Aquitalea sp. USM4 (JCM 19919) (enzyme),stoichiometry N,2
